In paper doi:10.1101/2023.10.19.563136:

Key:
[1] = target: phosphorylated HemRFL (full-length HemR) (Leptospira biflexa); assay: SEC
[2] = target: phosphorylated HemRREC (phospho-receiver domain of HemR) (Leptospira biflexa); assay: SEC

| stoichiometry N [1] | stoichiometry N [2] | Substance |
| --- | --- | --- |
| 2 |  | phosphorylated HemRFL (full-length HemR) (natural protein) |
|  | 2 | phosphorylated HemRREC (phospho-receiver domain of HemR) (domain or fragment) |
